IntAct's records for PubMed 35512704

B1: Mothers against decapentaplegic homolog 4 (Homo sapiens), Q13485 (parent)
chain: MDNMSITNTPTSNDACLSIVHSLMCHRQGGESETFAKRAIESLVKKLKEKKDELDSLITAITTNGAHPSKCVTIQRTLDGRLQVAGRKGFPHVIYARLWRWPDLHKNELKHVKYCQYAFDLKCDSVCVNPYHYERVVSPGIDLSGLTLQSNAPSSMMVKDEYVHDFEGQPSLSTEGHSIQTIQHPPSNRASTETYSTPALLAPSESNATSTANFPNIPVASTSQPASILGGSHSEGLLQIASGPQPGQQQNGFTGQPATYHHNSTTTWTGSRTAPYTPNLPHHQNGHLQHHPPMPPHPGHYWPVHNELAFQPPISNHPAPEYWCSIAYFEMDVQVGETFKVPSSCPIVTVDGYVDPSGGDRFCLGQLSNVHRTEAIERARLHIGKGVQLECKGEGDVWVRCLSDHAVFVQSYYLDREAGRAPGDAVHKIYPSAYIKVFDLRQCHRQMQQQAATAQAAAAAQAAAVAGNIPGPGSVGGIAPAISLSAAAGIGVDDLRRLCILRMSFVKGWGPDYPRQSIKETPCWIEIHLHRALQLLDEVLHTMPIADPQPLD
partner: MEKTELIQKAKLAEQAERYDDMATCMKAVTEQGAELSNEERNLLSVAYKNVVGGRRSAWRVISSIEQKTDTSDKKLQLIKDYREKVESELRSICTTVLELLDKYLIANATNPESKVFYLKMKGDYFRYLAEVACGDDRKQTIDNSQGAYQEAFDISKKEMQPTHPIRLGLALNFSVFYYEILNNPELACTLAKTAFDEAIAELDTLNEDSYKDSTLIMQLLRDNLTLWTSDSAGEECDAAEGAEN
B2: Mothers against decapentaplegic homolog 4 (Homo sapiens), Q13485 (parent)
chain: B1 chain
partner: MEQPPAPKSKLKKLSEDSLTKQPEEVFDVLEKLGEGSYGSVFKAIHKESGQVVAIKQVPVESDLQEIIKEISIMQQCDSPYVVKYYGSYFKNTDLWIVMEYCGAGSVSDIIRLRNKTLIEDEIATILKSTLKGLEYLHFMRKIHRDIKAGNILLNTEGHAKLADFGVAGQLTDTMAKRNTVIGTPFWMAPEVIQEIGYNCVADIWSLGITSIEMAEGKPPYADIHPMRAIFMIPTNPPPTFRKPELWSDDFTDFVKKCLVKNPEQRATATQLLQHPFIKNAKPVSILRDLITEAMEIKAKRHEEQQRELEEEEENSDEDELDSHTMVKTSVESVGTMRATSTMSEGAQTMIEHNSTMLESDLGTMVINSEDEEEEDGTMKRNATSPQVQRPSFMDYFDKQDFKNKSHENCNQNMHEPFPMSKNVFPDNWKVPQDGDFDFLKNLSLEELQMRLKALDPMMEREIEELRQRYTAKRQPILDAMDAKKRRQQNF
B3: Mothers against decapentaplegic homolog 4 (Homo sapiens), Q13485 (parent)
chain: B1 chain
partner: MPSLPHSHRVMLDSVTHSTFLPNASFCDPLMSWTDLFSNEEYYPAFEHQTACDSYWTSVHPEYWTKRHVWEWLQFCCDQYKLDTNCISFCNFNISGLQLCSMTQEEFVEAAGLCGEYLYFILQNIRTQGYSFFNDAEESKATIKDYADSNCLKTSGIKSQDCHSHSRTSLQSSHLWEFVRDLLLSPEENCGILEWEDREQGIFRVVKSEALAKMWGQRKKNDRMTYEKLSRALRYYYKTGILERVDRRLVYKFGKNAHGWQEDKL
B4: Mothers against decapentaplegic homolog 4 (Homo sapiens), Q13485 (parent)
chain: B1 chain
partner: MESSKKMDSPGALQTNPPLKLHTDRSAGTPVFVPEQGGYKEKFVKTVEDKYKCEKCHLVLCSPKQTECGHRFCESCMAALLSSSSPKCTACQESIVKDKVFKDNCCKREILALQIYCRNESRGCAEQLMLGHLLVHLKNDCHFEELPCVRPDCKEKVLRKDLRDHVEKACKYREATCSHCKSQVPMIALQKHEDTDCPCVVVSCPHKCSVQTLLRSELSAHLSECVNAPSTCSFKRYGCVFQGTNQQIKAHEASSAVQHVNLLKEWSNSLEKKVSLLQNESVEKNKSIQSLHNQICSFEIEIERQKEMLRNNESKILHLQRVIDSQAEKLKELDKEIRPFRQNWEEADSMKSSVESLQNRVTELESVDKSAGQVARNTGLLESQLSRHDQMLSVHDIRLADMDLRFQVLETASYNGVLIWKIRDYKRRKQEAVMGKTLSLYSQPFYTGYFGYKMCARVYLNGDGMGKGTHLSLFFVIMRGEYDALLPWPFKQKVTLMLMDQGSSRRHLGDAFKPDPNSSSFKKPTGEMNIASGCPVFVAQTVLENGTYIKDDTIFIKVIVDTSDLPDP
B5: Mothers against decapentaplegic homolog 4 (Homo sapiens), Q13485 (parent)
chain: B1 chain
partner: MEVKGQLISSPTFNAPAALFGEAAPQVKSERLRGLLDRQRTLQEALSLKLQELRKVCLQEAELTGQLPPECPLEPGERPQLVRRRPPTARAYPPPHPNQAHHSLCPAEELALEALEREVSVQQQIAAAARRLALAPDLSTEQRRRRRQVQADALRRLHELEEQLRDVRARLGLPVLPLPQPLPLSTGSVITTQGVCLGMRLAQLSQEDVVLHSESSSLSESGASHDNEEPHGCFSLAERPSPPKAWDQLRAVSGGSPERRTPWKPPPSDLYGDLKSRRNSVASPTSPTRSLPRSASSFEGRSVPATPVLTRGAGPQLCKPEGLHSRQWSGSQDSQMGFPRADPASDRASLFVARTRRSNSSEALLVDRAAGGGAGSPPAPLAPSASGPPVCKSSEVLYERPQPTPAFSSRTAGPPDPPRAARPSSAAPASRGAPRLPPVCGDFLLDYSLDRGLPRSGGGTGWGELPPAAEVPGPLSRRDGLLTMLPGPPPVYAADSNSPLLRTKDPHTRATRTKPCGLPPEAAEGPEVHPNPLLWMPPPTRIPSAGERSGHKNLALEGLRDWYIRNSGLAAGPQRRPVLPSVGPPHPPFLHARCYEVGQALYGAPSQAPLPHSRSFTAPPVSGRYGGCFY
B6: Mothers against decapentaplegic homolog 4 (Homo sapiens), Q13485 (parent)
chain: B1 chain
partner: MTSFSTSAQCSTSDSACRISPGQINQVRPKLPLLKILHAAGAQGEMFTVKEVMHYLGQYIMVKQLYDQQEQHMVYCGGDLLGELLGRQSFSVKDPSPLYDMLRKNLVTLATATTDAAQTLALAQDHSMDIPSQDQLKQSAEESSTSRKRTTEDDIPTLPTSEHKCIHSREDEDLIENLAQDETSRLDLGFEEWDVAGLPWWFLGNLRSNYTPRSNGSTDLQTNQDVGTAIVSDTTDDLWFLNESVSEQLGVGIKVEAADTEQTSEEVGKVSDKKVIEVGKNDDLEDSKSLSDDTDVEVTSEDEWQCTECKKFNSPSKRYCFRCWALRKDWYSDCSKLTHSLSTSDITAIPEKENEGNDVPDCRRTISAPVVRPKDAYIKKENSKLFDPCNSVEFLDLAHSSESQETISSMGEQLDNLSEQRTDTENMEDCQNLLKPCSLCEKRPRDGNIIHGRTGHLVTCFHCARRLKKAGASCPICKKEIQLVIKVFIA
B7: Mothers against decapentaplegic homolog 4 (Homo sapiens), Q13485 (parent)
chain: B1 chain
partner: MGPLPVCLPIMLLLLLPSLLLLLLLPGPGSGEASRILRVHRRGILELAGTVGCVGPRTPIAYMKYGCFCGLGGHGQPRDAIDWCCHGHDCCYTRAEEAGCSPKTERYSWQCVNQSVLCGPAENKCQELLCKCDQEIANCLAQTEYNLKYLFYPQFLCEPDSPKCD

Variants of: B1
Settings: with 1433t_human YWHAQ

| effect of a mutation on the interaction | Variant |
| --- | --- |
| with no effect | G386D |

Variants of: B1
Settings: with 1433t_human YWHAQ
Remark: another data set of the same source

| effect of a mutation on the interaction | Variant |
| --- | --- |
| with no effect | R361C |

Variants of: B1
Settings: with 1433t_human YWHAQ
Remark: another data set of the same source

| effect of a mutation on the interaction | Variant |
| --- | --- |
| with no effect | R361H |

Variants of: B1
Settings: with 1433t_human YWHAQ
Remark: another data set of the same source

| effect of a mutation on the interaction | Variant |
| --- | --- |
| with no effect | D351H |

Variants of: B2
Settings: with stk3_human STK3, Q13188

| effect of a mutation on the interaction | Variant |
| --- | --- |
| with no effect | R361H |

Variants of: B2
Settings: with stk3_human STK3, Q13188
Remark: another data set of the same source

| effect of a mutation on the interaction | Variant |
| --- | --- |
| with no effect | R361C |

Variants of: B2
Settings: with stk3_human STK3, Q13188
Remark: another data set of the same source

| effect of a mutation on the interaction | Variant |
| --- | --- |
| with no effect | G386D |

Variants of: B2
Settings: with stk3_human STK3, Q13188
Remark: another data set of the same source

| effect of a mutation on the interaction | Variant |
| --- | --- |
| with no effect | D351H |

Variants of: B3
Settings: with elf5_human ELF5, Q9UKW6

| effect of a mutation on the interaction | Variant |
| --- | --- |
| with no effect | G386D |

Variants of: B3
Settings: with elf5_human ELF5, Q9UKW6
Remark: another data set of the same source

| effect of a mutation on the interaction | Variant |
| --- | --- |
| with no effect | R361H |

Variants of: B3
Settings: with elf5_human ELF5, Q9UKW6
Remark: another data set of the same source

| effect of a mutation on the interaction | Variant |
| --- | --- |
| with no effect | R361C |

Variants of: B4
Settings: with traf3_human TRAF3, Q13114

| effect of a mutation on the interaction | Variant |
| --- | --- |
| with no effect | G386D |

Variants of: B4
Settings: with traf3_human TRAF3, Q13114
Remark: another data set of the same source

| effect of a mutation on the interaction | Variant |
| --- | --- |
| with no effect | D351H |

Variants of: B4
Settings: with traf3_human TRAF3, Q13114
Remark: another data set of the same source

| effect of a mutation on the interaction | Variant |
| --- | --- |
| with no effect | R361H |

Variants of: B4
Settings: with traf3_human TRAF3, Q13114
Remark: another data set of the same source

| effect of a mutation on the interaction | Variant |
| --- | --- |
| with no effect | R361C |

Variants of: B5
Settings: with cc120_human CCDC120, Q96HB5

| effect of a mutation on the interaction | Variant |
| --- | --- |
| with no effect | G386D |

Variants of: B5
Settings: with cc120_human CCDC120, Q96HB5
Remark: another data set of the same source

| effect of a mutation on the interaction | Variant |
| --- | --- |
| increasing interaction strength | G386D |

Variants of: B5
Settings: with cc120_human CCDC120, Q96HB5
Remark: another data set of the same source

| effect of a mutation on the interaction | Variant |
| --- | --- |
| with no effect | R361C |

Variants of: B6
Settings: with mdm4_human MDM4, O15151

| effect of a mutation on the interaction | Variant |
| --- | --- |
| with no effect | D351H |

Variants of: B6
Settings: with mdm4_human MDM4, O15151
Remark: another data set of the same source

| effect of a mutation on the interaction | Variant |
| --- | --- |
| with no effect | G386D |

Variants of: B6
Settings: with mdm4_human MDM4, O15151
Remark: another data set of the same source

| effect of a mutation on the interaction | Variant |
| --- | --- |
| with no effect | R361H |

Variants of: B7
Settings: with pa2gx_human PLA2G10, O15496

| effect of a mutation on the interaction | Variant |
| --- | --- |
| with no effect | R361C |

Variants of: B7
Settings: with pa2gx_human PLA2G10, O15496
Remark: another data set of the same source

| effect of a mutation on the interaction | Variant |
| --- | --- |
| with no effect | G386D |
